# Data taken from patent publication US20170355757A1 (Regeneron, published 2017).
# T1: monkey C5-mmh (monkey, UniProt P01031 19-1676 (human entry), limits assumed)
# T1 construct: Recombinant monkey C5 with a C-terminal myc-myc-hexahistidine tag
# T1 chain: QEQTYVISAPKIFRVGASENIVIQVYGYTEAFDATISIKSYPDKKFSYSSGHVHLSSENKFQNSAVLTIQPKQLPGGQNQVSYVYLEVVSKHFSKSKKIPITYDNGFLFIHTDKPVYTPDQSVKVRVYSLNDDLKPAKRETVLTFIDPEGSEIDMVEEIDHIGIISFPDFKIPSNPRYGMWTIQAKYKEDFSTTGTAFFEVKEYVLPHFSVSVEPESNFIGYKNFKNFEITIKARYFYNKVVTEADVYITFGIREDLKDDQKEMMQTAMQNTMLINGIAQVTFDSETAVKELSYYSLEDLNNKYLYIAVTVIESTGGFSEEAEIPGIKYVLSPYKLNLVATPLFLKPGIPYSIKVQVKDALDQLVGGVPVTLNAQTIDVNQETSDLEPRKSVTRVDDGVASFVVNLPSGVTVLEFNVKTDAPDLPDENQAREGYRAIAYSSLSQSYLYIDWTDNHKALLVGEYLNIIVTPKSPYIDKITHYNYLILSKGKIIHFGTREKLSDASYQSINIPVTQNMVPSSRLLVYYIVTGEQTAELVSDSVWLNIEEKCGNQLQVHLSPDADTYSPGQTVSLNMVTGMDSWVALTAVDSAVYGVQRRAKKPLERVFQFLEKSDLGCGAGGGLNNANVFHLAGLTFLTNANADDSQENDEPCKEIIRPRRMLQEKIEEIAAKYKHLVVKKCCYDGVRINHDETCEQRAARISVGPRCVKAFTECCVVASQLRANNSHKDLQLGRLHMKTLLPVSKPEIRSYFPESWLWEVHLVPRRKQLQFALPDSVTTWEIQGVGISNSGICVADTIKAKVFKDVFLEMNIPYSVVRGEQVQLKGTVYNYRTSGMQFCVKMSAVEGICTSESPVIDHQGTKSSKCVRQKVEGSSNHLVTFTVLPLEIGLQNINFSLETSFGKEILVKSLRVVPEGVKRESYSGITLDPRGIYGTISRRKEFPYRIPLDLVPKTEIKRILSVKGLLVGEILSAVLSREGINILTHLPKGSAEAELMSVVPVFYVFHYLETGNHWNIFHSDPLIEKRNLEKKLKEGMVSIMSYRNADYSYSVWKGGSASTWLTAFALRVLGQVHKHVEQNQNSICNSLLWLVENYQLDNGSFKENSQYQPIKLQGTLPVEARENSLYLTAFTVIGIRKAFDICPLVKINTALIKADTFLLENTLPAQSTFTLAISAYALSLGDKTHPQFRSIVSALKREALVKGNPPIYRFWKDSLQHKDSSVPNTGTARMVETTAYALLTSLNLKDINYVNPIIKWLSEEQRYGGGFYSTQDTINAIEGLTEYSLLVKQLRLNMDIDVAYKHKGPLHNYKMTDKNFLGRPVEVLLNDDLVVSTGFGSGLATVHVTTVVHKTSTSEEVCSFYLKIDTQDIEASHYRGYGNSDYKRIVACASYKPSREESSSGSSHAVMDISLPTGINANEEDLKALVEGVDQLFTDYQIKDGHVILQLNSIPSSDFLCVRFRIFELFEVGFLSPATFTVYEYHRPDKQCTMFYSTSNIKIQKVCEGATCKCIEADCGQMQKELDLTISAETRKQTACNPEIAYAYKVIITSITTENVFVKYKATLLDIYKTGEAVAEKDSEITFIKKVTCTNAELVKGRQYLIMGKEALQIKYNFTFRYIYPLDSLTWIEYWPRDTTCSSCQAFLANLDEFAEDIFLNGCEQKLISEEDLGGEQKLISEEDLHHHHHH
# B1: H4H12166P (antibody, V domains shown)
# VH: QVQLQESGPGLVKPSETLSLTCTVSGDSVSSSYWTWIRQPPGKGLEWIGYIYYSGSSNYNPSLKSRATISVDTSKNQFSLKLSSVTAADTAVYYCAREGNVDTTMIFDYWGQGTLVTVSS
# VL: AIQMTQSPSSLSASVGDRVTITCRASQGIRNDLGWYQQKPGKAPKLLIYAASSLQSGVPSRFAGRGSGTDFTLTISSLQPEDFATYYCLQDFNYPWTFGQGTKVEIK
# B2: H4H12166P2 (antibody, human IgG4, V domains shown)
# VH: QVQLQESGPGLVKPSETLSLTCTVSGDSVSSSYWTWIRQPPGKGLEWIGYIYYSGSSNYNPSLKSRATISVDTSKNQFSLKLSSVTAADTAVYYCAREGNVDTTMIFDYWGQGTLVTVSS
# VL: AIQMTQSPSSLSASVGDRVTITCRASQGIRNDLGWYQQKPGKAPKLLIYAASSLQSGVPSRFAGRGSGTDFTLTISSLQPEDFATYYCHQDFNYPWTFGQGTKVEIK
# notes: Histidine-mutated CDR variant of H4H12166P; human IgG4 Fc with S108P
# B3: H4H12166P4 (antibody, human IgG4, V domains shown)
# VH: QVQLQESGPGLVKPSETLSLTCTVSGDSVSSSYWTWIRQPPGKGLEWIGYIYYSGSSNYNPSLKSRATISVDTSKNQFSLKLSSVTAADTAVYYCAREGNVDTTMIFDYWGQGTLVTVSS
# VL: AIQMTQSPSSLSASVGDRVTITCRASQGIRNDLGWYQQKPGKAPKLLIYAASSLQSGVPSRFAGRGSGTDFTLTISSLQPEDFATYYCLQDFNYPWHFGQGTKVEIK
# notes: as for B2
# B4: H4H12166P5 (antibody, human IgG4, V domains shown)
# VH: QVQLQESGPGLVKPSETLSLTCTVSGDSVSSSYWTWIRQPPGKGLEWIGYIYYSGSSNYNPSLKSRATISVDTSKNQFSLKLSSVTAADTAVYYCAREGNVDTTMIHDYWGQGTLVTVSS
# VL: AIQMTQSPSSLSASVGDRVTITCRASQGIRNDLGWYQQKPGKAPKLLIYAASSLQSGVPSRFAGRGSGTDFTLTISSLQPEDFATYYCLQDFNYPWTFGQGTKVEIK
# notes: as for B2
# B5: H4H12166P6 (antibody, human IgG4, V domains shown)
# VH: QVQLQESGPGLVKPSETLSLTCTVSGDSVSSSYWTWIRQPPGKGLEWIGYIYYSGSSNYNPSLKSRATISVDTSKNQFSLKLSSVTAADTAVYYCAREGNVDHTMIFDYWGQGTLVTVSS
# VL: AIQMTQSPSSLSASVGDRVTITCRASQGIRNDLGWYQQKPGKAPKLLIYAASSLQSGVPSRFAGRGSGTDFTLTISSLQPEDFATYYCLQDFNYPWTFGQGTKVEIK
# notes: as for B2
# B6: H4H12166P7 (antibody, human IgG4, V domains shown)
# VH: QVQLQESGPGLVKPSETLSLTCTVSGDSVSSSYWTWIRQPPGKGLEWIGYIYYSGSSNYNPSLKSRATISVDTSKNQFSLKLSSVTAADTAVYYCAREHNVDTTMIFDYWGQGTLVTVSS
# VL: AIQMTQSPSSLSASVGDRVTITCRASQGIRNDLGWYQQKPGKAPKLLIYAASSLQSGVPSRFAGRGSGTDFTLTISSLQPEDFATYYCLQDFNYPWHFGQGTKVEIK
# notes: as for B2
# B7: H4H12166P8 (antibody, human IgG4, V domains shown)
# VH: QVQLQESGPGLVKPSETLSLTCTVSGDSVSSSYWTWIRQPPGKGLEWIGYIYYSGSSNYNPSLKSRATISVDTSKNQFSLKLSSVTAADTAVYYCAREGNVDHTMIFDYWGQGTLVTVSS
# VL: AIQMTQSPSSLSASVGDRVTITCRASQGIRNDLGWYQQKPGKAPKLLIYAASSLQSGVPSRFAGRGSGTDFTLTISSLQPEDFATYYCHQDFNYPWTFGQGTKVEIK
# notes: as for B2
# B8: H4H12166P9 (antibody, human IgG4, V domains shown)
# VH: QVQLQESGPGLVKPSETLSLTCTVSGDSVSSSYWTWIRQPPGKGLEWIGYIYYSGSSNYNPSLKSRATISVDTSKNQFSLKLSSVTAADTAVYYCAREGNVDHTMIFDYWGQGTLVTVSS
# VL: AIQMTQSPSSLSASVGDRVTITCRASQGIRNDLGWYQQKPGKAPKLLIYAASSLQSGVPSRFAGRGSGTDFTLTISSLQPEDFATYYCLQDFNYPWHFGQGTKVEIK
# notes: as for B2
# B9: H4H12166P10 (antibody, human IgG4, V domains shown)
# VH: QVQLQESGPGLVKPSETLSLTCTVSGDSVSSSYWTWIRQPPGKGLEWIGYIYYSGSSNYNPSLKSRATISVDTSKNQFSLKLSSVTAADTAVYYCAREGNVDTTMIHDYWGQGTLVTVSS
# VL: AIQMTQSPSSLSASVGDRVTITCRASQGIRNDLGWYQQKPGKAPKLLIYAASSLQSGVPSRFAGRGSGTDFTLTISSLQPEDFATYYCLQDFNYPWHFGQGTKVEIK
# notes: as for B2
# Tests used:
# [1] = biological target: African green monkey C5 (African green monkey); assay: cell-based or functional assay
# [2] = biological target: Cynomolgus monkey C5 (cynomolgus monkey, UniProt A0A2K5U1T1 19-1676); assay: cell-based or functional assay
# [3] = biological target: T1, monkey C5-mmh; assay: SPR, mAb captured via anti-hFc, 37C
# Procedure: Equilibrium dissociation constants (KD values) for C5 binding to purified anti-C5 antibodies were determined using a real-time surface plasmon resonance biosensor assay on a Biacore T200 instrument. The Biacore sensor surface was derivatized by amine coupling with a monoclonal mouse anti-human Fc antibody (GE Healthcare, # BR-1008-39) to capture anti-C5 antibodies expressed with human Fc constant regions. Biacore binding studies were conducted in HBST running buffer (0.01M HEPES pH 7.4, 0.15M NaCl, 3 mM EDTA, 0.05% v/v Surfactant P20).
# Human C5 was obtained from a commercial source (EMD). Other C5 reagents were expressed with a C-terminal myc-myc-hexahistidine tag (subsequently referred to as C5-mmh). […] Association of all the C5 reagents to each of the captured monoclonal antibodies was monitored for 3 minutes and their dissociation in HBST running buffer was monitored for 8 minutes. All the binding kinetics experiments were performed at either 25° C. or 37° C. Kinetic association (kₐ) and dissociation (kd) rate constants were determined by fitting the real-time sensorgrams to a 1:1 binding model using Scrubber 2.0c curve fitting software. Binding dissociation equilibrium constants (KD) and dissociative half-lives (t %) were calculated from the kinetic rate constants as: KD (M)=kd/kₐ and t_{1/2} (min)=In2/(60×kd)
# [4] = biological target: T2, human C5 (human, UniProt P01031 19-1676); assay: SPR, mAb captured via anti-hFc, dissociation at pH7.4 vs pH6.0, 25C
# T2 construct: Bought human C5 (EMD #204888, said elsewhere to be purified from plasma); also called hC5; complement component 5
# Procedure: Effect of pH on the rate of dissociation of recombinant human C5 bound to purified anti-C5 monoclonal antibodies was determined using a real-time surface plasmon resonance biosensor using a Biacore T200 instrument. The Biacore sensor surface was first derivatized by amine coupling with a monoclonal mouse anti-human Fc antibody (GE, # BR-1008-39) to capture anti-C5 monoclonal antibodies expressed with human IgG4 Fc. All Biacore binding studies were performed using two running buffers PBS-T, pH7.4 (0.01M Na₂HPO₄/NaH₂PO₄, 0.15M NaCl, 0.05% v/v Tween-20, adjusted to pH7.4) and PBS-T, pH6.0 (0.01M Na₂HPO₄/NaH₂PO₄, 0.15M NaCl, 0.05% v/v Tween-20, adjusted to pH6.0). […] Binding dissociative half-lives (t %) were calculated from kd as: […]
Binder,"AGM AP % Max Inhibition, hemolysis assay, 5% serum [1]","AGM CP % Max Inhibition, hemolysis assay, 5% serum [1]","AGM Serum AP IC50, hemolysis assay, 5% serum [1]","Cyno AP % Max Inhibition, hemolysis assay, 5% serum [2]","Cyno CP % Max Inhibition, hemolysis assay, 5% serum [2]","Cyno Serum AP IC50, hemolysis assay, 5% serum [2]","Cyno Serum CP IC50, hemolysis assay, 5% serum [2]",100 nM monkey C5-mmh Bound (RU) [3],Kd [3],koff [3],kon [3],t1/2 [3],t1/2 Ratio pH7.4/pH6.0 [4]
B1,44.2%,81%,0.233 µM,98.6%,94.2%,0.00885 µM,0.0201 µM,,,,,,
B2,,,,,,,,83 RU,0.00756 µM,0.00297 s⁻¹,393000 M⁻¹ s⁻¹,4 min,9.3
B3,,,,,,,,80 RU,0.0082 µM,0.00183 s⁻¹,223000 M⁻¹ s⁻¹,6 min,7.8
B4,,,,,,,,70 RU,0.0209 µM,0.00313 s⁻¹,150000 M⁻¹ s⁻¹,4 min,8.3
B5,,,,,,,,112 RU,0.00918 µM,0.00232 s⁻¹,253000 M⁻¹ s⁻¹,5 min,7.8
B6,,,,,,,,48 RU,0.0193 µM,0.00241 s⁻¹,125000 M⁻¹ s⁻¹,5 min,35
B7,,,,,,,,53 RU,0.0133 µM,0.00269 s⁻¹,203000 M⁻¹ s⁻¹,4 min,47
B8,,,,,,,,69 RU,0.0144 µM,0.00261 s⁻¹,181000 M⁻¹ s⁻¹,4 min,31
B9,,,,,,,,24 RU,0.0422 µM,0.00279 s⁻¹,66000 M⁻¹ s⁻¹,4 min,33
